One protein from FireProtDB (doi:10.1016/s0022-2836(02)00737-4) can be followed below.

For the series the following is noted: Escherichia coli (strain K12); pH 7.8; 25 °C; Urea; CD; potassium phosphate 10 mM; transition: 3; whole UniProt chain shown.

B1: Tryptophan synthase alpha chain wild type, P0A877 (protein)
chain: MERYESLFAQLKERKEGAFVPFVTLGDPGIEQSLKIIDTLIEAGADALELGIPFSDPLADGPTIQNATLRAFAAGVTPAQCFEMLALIRQKHPTIPIGLLMYANLVFNKGIDEFYAQCEKVGVDSVLVADVPVEESAPFRQAALRHNVAPIFICPPNADDDLLRQIASYGRGYTYLLSRAGVTGAENRAALPLNHLVAKLKEYNAAPPLQGFGISAPDQVKAAIDAGAAGAISGSAIVKIIEQHINEPEKMLAALKVFVQPMKAATRS
Regarding B1, the denaturant m value worked out at 2.29 kcal/mol/M, the “denaturant midpoint (higher = more stable)” value came out at 2.68 M and the unfolding free energy amounted to 6.13 kcal/mol.
